{"source": "patent US20080138349A1", "key": {"[1]": {"molecular_target": "FcγRIIA 131H (CD32A H131), soluble dimeric Fc fusion (human) (UniProt P12318)", "sequence (P12318 34-217)": "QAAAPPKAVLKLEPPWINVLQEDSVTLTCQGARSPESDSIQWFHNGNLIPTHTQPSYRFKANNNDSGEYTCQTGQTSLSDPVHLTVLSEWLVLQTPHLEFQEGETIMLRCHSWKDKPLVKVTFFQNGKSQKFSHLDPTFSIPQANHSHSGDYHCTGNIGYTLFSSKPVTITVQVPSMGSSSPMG", "assay": "binding to human FcRs; method not given"}, "[2]": {"molecular_target": "FcγRIIB (CD32B), soluble dimeric Fc fusion (human) (UniProt P31994)", "sequence (P31994 43-217)": "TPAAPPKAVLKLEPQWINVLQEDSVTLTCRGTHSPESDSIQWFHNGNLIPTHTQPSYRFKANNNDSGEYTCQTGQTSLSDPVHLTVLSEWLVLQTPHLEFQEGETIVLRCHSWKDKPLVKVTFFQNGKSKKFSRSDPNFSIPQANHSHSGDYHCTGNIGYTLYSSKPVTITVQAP", "assay": "binding to human FcRs; method not given"}, "[3]": {"molecular_target": "FcγRIIIA 158F (CD16A F158), soluble monomer (human) (UniProt P08637)", "sequence (P08637 17-208)": "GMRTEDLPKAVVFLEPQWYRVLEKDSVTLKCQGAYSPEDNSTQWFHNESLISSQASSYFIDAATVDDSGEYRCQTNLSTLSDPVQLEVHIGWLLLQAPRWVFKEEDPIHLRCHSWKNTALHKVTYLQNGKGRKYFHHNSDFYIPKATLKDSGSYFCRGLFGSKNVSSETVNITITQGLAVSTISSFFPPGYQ", "assay": "binding to human FcRs; method not given"}, "[4]": {"molecular_target": "FcγRIIIA 158V (CD16A V158), soluble monomer (human) (UniProt P08637)", "sequence (P08637 17-208 F176V)": "as the sequence (P08637 17-208) above, with F160V counted along it", "assay": "binding to human FcRs; method not given"}, "[5]": {"molecular_target": "FcγRIIB (CD32B), soluble dimeric Fc fusion (human) (UniProt P31994)", "assay": "Biacore SPR"}, "[6]": {"molecular_target": "FcγRIIIA 158F (CD16A F158), soluble monomer (human) (UniProt P08637)", "assay": "Biacore SPR"}, "[7]": {"molecular_target": "FcγRIIIA 158V (CD16A V158), soluble monomer (human) (UniProt P08637)", "assay": "Biacore SPR"}, "[8]": {"molecular_target": "FcγRIIIA 158F (CD16A F158), soluble monomer (human) (UniProt P08637)", "assay": "Biacore SPR; value on CD16A over value on CD32B"}, "[9]": {"molecular_target": "FcγRIIIA 158V (CD16A V158), soluble monomer (human) (UniProt P08637)", "assay": "Biacore SPR; value on CD16A over value on CD32B"}, "[10]": {"molecular_target": "FcγRIIA 131H (CD32A H131), soluble dimeric Fc fusion (human) (UniProt P12318)", "assay": "method not given"}, "[11]": {"molecular_target": "FcγRIIA 131R (CD32A R131), soluble dimeric Fc fusion (human) (UniProt P12318)", "sequence (P12318 34-217 H167R)": "as the sequence (P12318 34-217) above, with H134R counted along it", "assay": "method not given"}, "[12]": {"molecular_target": "FcγRIIB (CD32B), soluble dimeric Fc fusion (human) (UniProt P31994)", "assay": "method not given"}, "[13]": {"molecular_target": "FcγRIIIA 158F (CD16A F158), soluble monomer (human) (UniProt P08637)", "assay": "method not given"}, "[14]": {"molecular_target": "FcγRIIIA 158V (CD16A V158), soluble monomer (human) (UniProt P08637)", "assay": "method not given"}, "[15]": {"molecular_target": "FcγRIIIA 158F (CD16A F158), soluble monomer (human) (UniProt P08637)", "assay": "value on CD16A 158F over value on CD32B"}, "[16]": {"molecular_target": "FcγRIIIA 158V (CD16A V158), soluble monomer (human) (UniProt P08637)", "assay": "value on CD16A 158V over value on CD32B"}, "[17]": {"molecular_target": "FcγRIIA 131H (CD32A H131), soluble dimeric Fc fusion (human) (UniProt P12318)", "assay": "value on CD32A 131H over value on CD32B"}, "FcγRIIIA": {"molecular_target": "FcγRIIIA (UniProt P08637)", "sequence (P08637 17-208 limits assumed)": "as the sequence (P08637 17-208) above", "assay": "ELISA"}, "[18]": {"molecular_target": "soluble monomeric FcγRIIIA, the extracellular region of FcγRIIIA joined to the linker-AVITAG sequence (UniProt P08637)", "sequence (P08637 17-208 limits assumed)": "as the sequence (P08637 17-208) above", "assay": "yeast display FACS; 0.1 µM biotinylated FcγRIIIA-linker-avitag chased with unlabeled monomer"}, "[19]": {"molecular_target": "FcγRIIB-Fc fusion protein, soluble dimeric: extracellular domain of FcγRIIB fused to the hinge-CH2-CH3 domain of human IgG2 (human) (UniProt P31994)", "sequence (P31994 43-217 limits assumed)": "as the sequence (P31994 43-217) above", "assay": "ELISA"}, "[20]": {"molecular_target": "FcγRIIB-Fc fusion protein, soluble dimeric: extracellular domain of FcγRIIB fused to the hinge-CH2-CH3 domain of human IgG2 (human) (UniProt P31994)", "assay": "BIAcore"}, "[21]": {"molecular_target": "soluble monomeric FcγRIIIA, the extracellular region of FcγRIIIA joined to the linker-AVITAG sequence (UniProt P08637)", "assay": "BIAcore"}, "[22]": {"molecular_target": "FcγRIIB-Fc fusion protein, soluble dimeric: extracellular domain of FcγRIIB fused to the hinge-CH2-CH3 domain of human IgG2 (human) (UniProt P31994)", "assay": "BIAcore, antibody captured on BSA-FITC"}, "[23]": {"molecular_target": "soluble monomeric FcγRIIIA, the extracellular region of FcγRIIIA joined to the linker-AVITAG sequence (UniProt P08637)", "assay": "BIAcore, antibody captured on BSA-FITC"}, "FcγRIIIA 158F, soluble": {"molecular_target": "FcγRIIIA 158F, soluble (UniProt P08637)", "sequence (P08637 17-208 limits assumed)": "as the sequence (P08637 17-208) above", "assay": "BIAcore, 2B6 captured by soluble CD32B"}, "FcγRIIIA 158V, soluble": {"molecular_target": "FcγRIIIA 158V, soluble (UniProt P08637)", "sequence (P08637 17-208 F176V limits assumed)": "as the sequence (P08637 17-208) above, with F160V counted along it", "assay": "BIAcore, 2B6 captured by soluble CD32B"}}, "note": "pKd: −log10 of the molar value.", "data": [{"substance": "Control immunoglobulin with variant Fc region E333A K334A S298A (AAA) (antibody)", "values": [{"measurement": "fold change relative to wild-type affinity", "setting": "[1]", "value": -3.3, "unit": "fold"}, {"measurement": "fold change relative to wild-type affinity", "setting": "[2]", "value": -2.5, "unit": "fold"}, {"measurement": "fold change relative to wild-type affinity", "setting": "[3]", "value": 0.1, "unit": "fold"}, {"measurement": "fold change relative to wild-type affinity", "setting": "[4]", "value": 0.6, "unit": "fold"}]}, {"substance": "Control immunoglobulin with variant Fc region S239D I332E A330L (XmAb) (antibody)", "values": [{"measurement": "fold change relative to wild-type affinity", "setting": "[1]", "value": 0, "unit": "fold"}, {"measurement": "fold change relative to wild-type affinity", "setting": "[2]", "value": 0.74, "unit": "fold"}, {"measurement": "fold change relative to wild-type affinity", "setting": "[3]", "value": 8.1, "unit": "fold"}, {"measurement": "fold change relative to wild-type affinity", "setting": "[4]", "value": 13.9, "unit": "fold"}]}, {"substance": "Immunoglobulin with variant Fc region F243L R292P P396L (antibody)", "values": [{"measurement": "fold change relative to wild-type affinity", "setting": "[1]", "value": 0.4, "unit": "fold"}, {"measurement": "fold change relative to wild-type affinity", "setting": "[2]", "value": -1.6, "unit": "fold"}, {"measurement": "fold change relative to wild-type affinity", "setting": "[3]", "value": 2.4, "unit": "fold"}, {"measurement": "fold change relative to wild-type affinity", "setting": "[4]", "value": 5.3, "unit": "fold"}]}, {"substance": "Immunoglobulin with variant Fc region F243L R292P Y300L (antibody)", "values": [{"measurement": "Koff WT/Koff mutant", "setting": "[5]", "value": 0.32}, {"measurement": "Koff WT/Koff mutant", "setting": "[6]", "value": 2.3}, {"measurement": "Koff WT/Koff mutant", "setting": "[7]", "value": 6.69}, {"measurement": "Ratio of Affinities CD16A F158/CD32B", "setting": "[8]", "value": 7.19}, {"measurement": "Ratio of Affinities CD16A V158/CD32B", "setting": "[9]", "value": 20.9}, {"measurement": "fold change relative to wild-type affinity", "setting": "[1]", "value": 0, "unit": "fold"}, {"measurement": "fold change relative to wild-type affinity", "setting": "[2]", "value": -0.7, "unit": "fold"}, {"measurement": "fold change relative to wild-type affinity", "setting": "[3]", "value": 3.6, "unit": "fold"}, {"measurement": "fold change relative to wild-type affinity", "setting": "[4]", "value": 6.4, "unit": "fold"}]}, {"substance": "Immunoglobulin with variant Fc region L234F, F243L, R292P, Y300L (antibody)", "values": [{"measurement": "binding relative to wt (wt = 1)", "setting": "[10]", "value": 0.3}, {"measurement": "binding relative to wt (wt = 1)", "setting": "[11]", "value": 0.2}, {"measurement": "binding relative to wt (wt = 1)", "setting": "[12]", "value": 0.2}, {"measurement": "binding relative to wt (wt = 1)", "setting": "[13]", "value": 1.6}, {"measurement": "binding relative to wt (wt = 1)", "setting": "[14]", "value": 1.7}, {"measurement": "Ratio of Affinities 16A-158F:32B", "setting": "[15]", "value": 8}, {"measurement": "Ratio of Affinities 16A-158V:32B", "setting": "[16]", "value": 8.5}, {"measurement": "Ratio of Affinities 32A-131H:32B", "setting": "[17]", "value": 1.5}]}, {"substance": "Immunoglobulin with variant Fc region L235I, F243L, R292P, Y300L (antibody)", "values": [{"measurement": "binding relative to wt (wt = 1)", "setting": "[10]", "value": 0.5}, {"measurement": "binding relative to wt (wt = 1)", "setting": "[11]", "value": 0.1}, {"measurement": "binding relative to wt (wt = 1)", "setting": "[12]", "value": 0.2}, {"measurement": "binding relative to wt (wt = 1)", "setting": "[13]", "value": 3.3}, {"measurement": "binding relative to wt (wt = 1)", "setting": "[14]", "value": 2.6}, {"measurement": "Ratio of Affinities 16A-158F:32B", "setting": "[15]", "value": 16.5}, {"measurement": "Ratio of Affinities 16A-158V:32B", "setting": "[16]", "value": 13}, {"measurement": "Ratio of Affinities 32A-131H:32B", "setting": "[17]", "value": 2.5}]}, {"substance": "Immunoglobulin with variant Fc region L235Q, F243L, R292P, Y300L (antibody)", "values": [{"measurement": "binding relative to wt (wt = 1)", "setting": "[10]", "value": 0.2}, {"measurement": "binding relative to wt (wt = 1)", "setting": "[14]", "value": 1.8}]}, {"substance": "Immunoglobulin with variant Fc region L235V, F243L, R292P, Y300L, P396L (antibody)", "values": [{"measurement": "binding relative to wt (wt = 1)", "setting": "[10]", "value": 1.3}, {"measurement": "binding relative to wt (wt = 1)", "setting": "[11]", "value": 0.4}, {"measurement": "binding relative to wt (wt = 1)", "setting": "[12]", "value": 0.4}, {"measurement": "binding relative to wt (wt = 1)", "setting": "[13]", "value": 4.8}, {"measurement": "binding relative to wt (wt = 1)", "setting": "[14]", "value": 6.1}, {"measurement": "Ratio of Affinities 16A-158F:32B", "setting": "[15]", "value": 12}, {"measurement": "Ratio of Affinities 16A-158V:32B", "setting": "[16]", "value": 15}, {"measurement": "Ratio of Affinities 32A-131H:32B", "setting": "[17]", "value": 3.3}]}, {"substance": "Immunoglobulin with variant Fc region P396L (antibody)", "values": [{"measurement": "Koff WT/Koff mutant", "setting": "[5]", "value": 2.58}, {"measurement": "Koff WT/Koff mutant", "setting": "[6]", "value": 1.73}, {"measurement": "Koff WT/Koff mutant", "setting": "[7]", "value": 1.27}, {"measurement": "Ratio of Affinities CD16A F158/CD32B", "setting": "[8]", "value": 0.67}, {"measurement": "Ratio of Affinities CD16A V158/CD32B", "setting": "[9]", "value": 0.49}, {"measurement": "fold change relative to wild-type affinity", "setting": "[1]", "value": 0.6, "unit": "fold"}, {"measurement": "fold change relative to wild-type affinity", "setting": "[2]", "value": 1.6, "unit": "fold"}, {"measurement": "fold change relative to wild-type affinity", "setting": "[3]", "value": 0.7, "unit": "fold"}, {"measurement": "fold change relative to wild-type affinity", "setting": "[4]", "value": 0.3, "unit": "fold"}]}, {"substance": "Immunoglobulin with variant Fc region Y300L (antibody)", "values": [{"measurement": "Koff WT/Koff mutant", "setting": "[5]", "value": 1.18}, {"measurement": "Koff WT/Koff mutant", "setting": "[7]", "value": 1.01}, {"measurement": "Ratio of Affinities CD16A F158/CD32B", "setting": "[8]", "value": 0.99}, {"measurement": "fold change relative to wild-type affinity", "setting": "[1]", "value": 1.9, "unit": "fold"}, {"measurement": "fold change relative to wild-type affinity", "setting": "[2]", "value": 0.2, "unit": "fold"}, {"measurement": "fold change relative to wild-type affinity", "setting": "[3]", "value": 0.2, "unit": "fold"}, {"measurement": "fold change relative to wild-type affinity", "setting": "[4]", "value": 0, "unit": "fold"}]}, {"substance": "ch4-4-20 P396L (from UniProt P01857 1-330) (antibody)", "values": [{"measurement": "ELISA binding increase vs wt", "setting": "FcγRIIIA", "value": 1, "unit": "x"}, {"measurement": "loss of cell staining after 1 minute with unlabeled FcγRIIIA", "setting": "[18]", "value": 50, "unit": "%"}]}, {"substance": "ch4-4-20 antibody, wild-type Fc (chimeric anti-fluorescein, IgG1)", "values": [{"measurement": "ELISA, OD", "setting": "[19]", "value": 0.4, "unit": "OD"}, {"measurement": "ELISA IIIA binding vs wt", "setting": "FcγRIIIA", "value": 1}, {"measurement": "ELISA, OD", "setting": "FcγRIIIA", "value": 0.5, "unit": "OD"}, {"measurement": "pKd", "setting": "[20]", "value": 7.03}, {"measurement": "pKd", "setting": "[21]", "value": 6.70}, {"measurement": "pKd", "setting": "[22]", "value": 7.21}, {"measurement": "pKd", "setting": "[23]", "value": 6.50}]}, {"substance": "ch-mAb 2B6 (chimeric anti-CD32B), wild-type IgG1 Fc (antibody)", "values": [{"measurement": "koff", "setting": "FcγRIIIA 158F, soluble", "value": 0.434, "unit": "s⁻¹"}, {"measurement": "koff", "setting": "FcγRIIIA 158V, soluble", "value": 0.192, "unit": "s⁻¹"}]}]}
